Laboratory results from the Immune Epitope Database (IEDB).

Legend:
[1] = molecular target: HLA-A*02:01; experiment: IEDB peptide-MHC binding, purified MHC/direct/fluorescence; filed as Kd, often an IC50 or EC50 that approximates it; ≥ and ≤ were set here for values at or beyond the usual limits of such assays
[2] = molecular target: HLA-A*69:01; experiment: as above
[3] = molecular target: HLA-B*08:01; experiment: IEDB peptide-MHC binding, purified MHC/competitive/radioactivity; filed as Kd, often an IC50 or EC50 that approximates it; ≥ and ≤ were set here for values at or beyond the usual limits of such assays
[4] = molecular target: HLA-A*01:01; experiment: as above
[5] = molecular target: HLA-A*30:02; experiment: as above
[6] = molecular target: HLA-A*24:02; experiment: as above
[7] = molecular target: HLA-A*23:01; experiment: as above
[8] = molecular target: HLA-A*02:01; experiment: IEDB peptide-MHC binding, purified MHC/competitive/fluorescence; ≥ and ≤ were set here for values at or beyond the usual limits of such assays
[9] = molecular target: HLA-A*26:01; experiment: IEDB peptide-MHC binding, purified MHC/competitive/radioactivity; filed as Kd, often an IC50 or EC50 that approximates it; ≥ and ≤ were set here for values at or beyond the usual limits of such assays
[10] = molecular target: HLA-A*30:01; experiment: as above
[11] = molecular target: HLA-A*01:01; experiment: IEDB peptide-MHC binding, purified MHC/direct/fluorescence; filed as Kd, often an IC50 or EC50 that approximates it; ≥ and ≤ were set here for values at or beyond the usual limits of such assays
[12] = molecular target: HLA-A*02:03; experiment: IEDB peptide-MHC binding, purified MHC/competitive/radioactivity; filed as Kd, often an IC50 or EC50 that approximates it; ≥ and ≤ were set here for values at or beyond the usual limits of such assays
[13] = molecular target: HLA-A*11:01; experiment: IEDB peptide-MHC binding, purified MHC/direct/fluorescence; filed as Kd, often an IC50 or EC50 that approximates it; ≥ and ≤ were set here for values at or beyond the usual limits of such assays; details: source organism: Influenza A virus (A/tiger/Thailand/CU-T4/04(H5N1))
[14] = molecular target: HLA-A*03:01; experiment: as above; details: source organism: Influenza A virus (A/tiger/Thailand/CU-T4/04(H5N1))
[15] = molecular target: HLA-A*02:02; experiment: IEDB peptide-MHC binding, purified MHC/competitive/radioactivity; filed as Kd, often an IC50 or EC50 that approximates it; ≥ and ≤ were set here for values at or beyond the usual limits of such assays; details: source organism: Vaccinia virus WR
[16] = molecular target: HLA-A*02:06; experiment: as above; details: source organism: Vaccinia virus WR
[17] = source organism: Salmonella enterica
[18] = source organism: Dengue virus 3 Martinique/1243/1999
[19] = source organism: Dengue virus 4 Philippines/H241/1956
[20] = source organism: Dengue virus 1 Brazil/97-11/1997
[21] = source organism: Vaccinia virus WR
[22] = source organism: Zaire ebolavirus
[23] = source organism: Dengue virus 2 Jamaica/1409/1983
[24] = source organism: Brucella melitensis
[25] = source organism: Escherichia coli
[26] = source organism: Sudan ebolavirus
[27] = source organism: Treponema pallidum
[28] = source organism: Camelpox virus M-96

AIDPRRIVA gave a Kd [1, 17] of at least 20000 nM and a Kd [2, 17] of at least 20000 nM.

AIKRRLRTL showed a Kd [3, 18] of 9.67 nM.

In the case of ALKRRLRTL, the Kd [3, 19] is reported as 1.89 nM.

ASVKKDLISY showed a Kd [4, 20] of at least 37800 nM and a Kd [5, 20] of 19.4 nM.

With AYQHALNEL the Kd [6, 19] was 199 nM and the Kd [7, 19] was 2340 nM.

CIKSHSVSL was tested, and the Kd [3, 21] was 2.3 nM.

Sequence DLVLFDLDE has an IC50 [8, 22] of at least 425000 nM.

Sequence DVKKDLISY has a Kd [9, 23] of 369 nM.

In the case of EKVDAIDGEY, the Kd [9, 23] is reported as 9410 nM and the Kd [5, 23] is reported as 25.9 nM.

Work on ELEPPFGDSY yielded a Kd [4, 19] of 117 nM and a Kd [9, 19] of 1320 nM.

ENPYKTWAY was tested, and the Kd [9, 18] was 2950 nM.

ETDLNQWMV gave a Kd [1, 24] of 163 nM and a Kd [2, 24] of 0.8 nM.

In the case of ETLLLLGLM, the Kd [9, 18] is reported as 133 nM.

EVDSFSLGI was tested, and the Kd [4, 20] was 7390 nM.

With EWITDFVGKT the Kd ([9]; source organism: Dengue virus 3 Singapore/8120/1995) was at least 28200 nM.

FGTNETEYL gave an IC50 [8, 22] of 27400 nM.

With FIRLKLTKL the Kd [3, 21] was 135 nM.

GIQRTVFFVL was tested, and the Kd [3, 19] was 6610 nM.

With GKLGLITNT the IC50 [8, 22] was at least 231000 nM.

With GLLASAPGI the Kd [1, 25] was 6.3 nM and the Kd [2, 25] was 974 nM.

In the case of GLLKKFEFL, the Kd [3, 21] is reported as 46.8 nM.

With GTVLVQVKY the Kd [4, 20] was 1240 nM and the Kd [5, 20] was 5110 nM.

Work on GVFEGIAVL yielded a Kd ([1]; source organism: Mycobacterium tuberculosis variant bovis) of 15.5 nM.

With GVSTDIPSA the IC50 [8, 26] was 2080 nM.

Sequence GWNDWQQVPF has a Kd [6, 20] of 1740 nM and a Kd [7, 20] of 1400 nM.

HFQRALIFIL showed a Kd [3, 23] of 1730 nM.

HLKHHKQCV gave a Kd [3, 21] of 4.51 nM.

HLKNSAENK gave a Kd [10, 21] of 861 nM.

IIGTNGNHM showed an IC50 [8, 26] of at least 144000 nM.

With IKRKLRTLIL the Kd [3, 20] was 5800 nM.

Sequence IVDYVTAYG has a Kd [1, 27] of 17300 nM, a Kd [11, 27] of 2520 nM and a Kd [2, 27] of 1630 nM.

Sequence KALSKLISK has a Kd [10, 21] of 70 nM.

For KIRPTRSVY, the Kd [10, 21] was 7.24 nM.

KLRPRWLDA was tested, and the Kd [10, 20] was 22.5 nM.

In the case of KNISGQSPA, the IC50 [8, 22] is reported as at least 228000 nM.

KRTSFFLWV was tested, and the IC50 [8, 22] was at least 79600 nM.

For KTHTLWSNG, the Kd [10, 19] was 81.4 nM.

For KTSSGRMPV, the Kd [10, 21] was 1.96 nM.

Sequence KTTFSLHYA has a Kd ([10]; source organism: Dengue virus 1 Singapore/S275/1990) of 14.5 nM.

KVRSNAALG was tested, and the Kd [10, 23] was 2.44 nM.

Work on LAEAIFKLTY yielded a Kd [4, 23] of 1510 nM.

With LAIPPTAGIL the Kd [3, 20] was 4250 nM.

Sequence LARTAKVKN has an IC50 [8, 22] of at least 213000 nM.

In the case of LLKATLLAV, the Kd [3, 20] is reported as 12.7 nM and the Kd [12, 20] is reported as 0.03 nM.

In the case of LLMLCLHHA, the IC50 [8, 22] is reported as 404 nM.

Sequence LLPPELSET has an IC50 ([8]; source organism: Human alphaherpesvirus 1 strain 17) of 4890 nM.

LLSKNTFYL was tested, and the Kd [1, 28] was 15.5 nM and the Kd [2, 28] was 536 nM.

For LTEIASLPT, the Kd [4, 19] was 1470 nM.

With MDLEKRHVL the Kd [3, 23] was 68 nM.

MFLITENKI gave a Kd ([7]; source organism: Dengue virus 1 Nauru/West Pac/1974) of 162 nM.

MLKRVRNRV showed a Kd [3, 18] of 18.5 nM and a Kd [12, 18] of 14.5 nM.

For MQKCYFSYK, the Kd [10, 21] was 0.527 nM.

MRKTDWLPM was tested, and the Kd [3, 18] was 35 nM.

MWKQITNEL showed a Kd [7, 19] of 144 nM.

In the case of NLTSTWVTY, the Kd [4, 18] is reported as 1710 nM.

For NPDIVIYQY, the Kd ([11]; source organism: Human immunodeficiency virus 1) was at least 21000 nM.

NPGARNARL was tested, and the Kd [3, 21] was 6.19 nM.

NQNALVCGL gave an IC50 [8, 26] of at least 122000 nM.

NSPVFNYNK was tested, and the Kd [13] was 116 nM and the Kd [14] was at least 20000 nM.

For NTTTFITVLT, the Kd [15] was 1960 nM, the Kd [16] was 600 nM and the Kd [12, 21] was 596 nM.

Sequence NVDIIDLLL has a Kd [15] of 461 nM, a Kd [16] of 22.3 nM and a Kd [12, 21] of 4090 nM.

Work on NYKERMVTF yielded a Kd [6, 19] of 19.4 nM and a Kd [7, 19] of 101 nM.

PMIIGEPIIV showed a Kd [15] of at least 70000 nM, a Kd [16] of at least 69800 nM and a Kd [12, 21] of 8840 nM.

In the case of PVETLFGSYI, the Kd [15] is reported as 13700 nM, the Kd [16] is reported as at least 69800 nM and the Kd [12, 21] is reported as 11800 nM.

Sequence QIDNFSLGV has a Kd [4, 23] of 661 nM.

QLLKILDNL was tested, and the Kd [15] was 227 nM, the Kd [16] was 135 nM and the Kd [12, 21] was 319 nM.

QVSDVDKLV was tested, and the IC50 [8, 22] was at least 70700 nM.

Sequence RARFIGGYI has a Kd [10, 21] of 0.263 nM.

Work on RARVSQGAG yielded a Kd [10, 20] of 194 nM.

For RFANALLAL, the Kd [6, 18] was 689 nM and the Kd [7, 18] was 142 nM.

RGDLPVWLSY gave a Kd [5, 20] of 4100 nM.

RLEVIGLTT was tested, and the Kd [15] was at least 20000 nM, the Kd [16] was at least 49800 nM and the Kd [12, 21] was 13900 nM.

Sequence RLRQDTEDIV has a Kd [15] of 134 nM, a Kd [16] of 7490 nM and a Kd [12, 21] of 284 nM.
